The data set can be described thus: yeast display, Sf9 membrane polyspecificity reagent, FACS + sequencing; frameworks hold sequencing errors. Put shortly:
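A nanobody's polyreactivity label depends on the gate it was sorted from. Yeast display cells were stained with 10% biotinylated, detergent-solubilized Sf9 membrane reagent for 1 hour at 4 °C, enriched on streptavidin microbeads and sorted by FACS. The low and high (top ~1%) gates were set on anti-HA fluorescence for expression and streptavidin fluorescence for reagent binding.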
Turning to “QVQLVESGGGLVQAGGSLRLSCAASGSTFGPYAMGWYRQAPGKERELVATISGSRSSTYYADSVKGRFTISRDNAKNTVYLQMNSLKPEDTAVYYCATDLYFDLRYDYWGQGTQVTVSS”, the “polyreactivity (PSR sort gate)” value is listed as “low polyreactivity”. On to “QVQLVESGGGLVQAGGSLRLSCAASGSTFGRNAMGWYRQAPGKERELVATITKSGGSTYYADSVKGRFTISRDNAKNTVYLQMNSLKPEDTAVYYCAKGVYYKVLRGGGDYWGQGTQVTVSS”, for which the “polyreactivity (PSR sort gate)” value is given as “high polyreactivity”. For the sequence “QVQLVESGGGLVQAGGSLRLSCATSGRTLGGYAMGWYRHAPGKERELVASITSTSSTYADSVKGRFTISRDNAKNTVYLQMNSLKPEDTAVYYCAADPRRYRGFGYVYGGFYYWGQGTQVTVSS”, the “polyreactivity (PSR sort gate)” value is “low polyreactivity”.

“QVQLVESGGGLVQAGGSLRLSGAASGRTLKWYAMGWYRQPPGKERELVAAISWSGGSTYYADSVKGRFTISRDNAKNTVYVQMNSLKPEDTAVYYCAAYYIYSSVGKSLYASMEYWGQGTQVTVSS”: the “polyreactivity (PSR sort gate)” value is given as “low polyreactivity”. “QVQLVESGGGLVQAGGSLRLSCAASGRTFPYYVMGWYRQAPGKERELVATISSSGRTYYADSVKGRFTISRDNAKNTVYLQMNSLKPEDTAVYYCAARFRWNQNYHFYSWGQGTQVTVSS”: the “polyreactivity (PSR sort gate)” value is given as “high polyreactivity”.

Turning to “QVQLVESGGGLVQAGGSLRLSCAASGSARYDMGWYRQPNGKERELVAAISRRGGSTFYADSVKGRFTISRDNAKNTVYLQMNSLKPEDTAVYYCAADGRISYDYWGQGTQVTVSS”, the “polyreactivity (PSR sort gate)” value is on record as “low polyreactivity”. For the sequence “QVQIVESCGGLFQAAGRLRLICADSRSIFSYNAMGWYRQAPGKERELVAAITSGGRTYYADSVKGRFTISRDNAKNTVYLQMNSLKPEDTGVYYCAAYQTGLHGFYSWGQGTQVTVSS”, the “polyreactivity (PSR sort gate)” value was “high polyreactivity”.

For “QVHLVESGGGLVQAGGSLRLSCAASGSIFYWYAMGWYRQAPGKERELVAAITWSGGSTYYADSVKGRFTISRDNAKNTVDLQMNSLKPEDTAVYYCAALVYGYPRWSGKYDYWGQVTQVTVSS”, the “polyreactivity (PSR sort gate)” value is “high polyreactivity”. On to “QVQLVESGGGLVQAGGSLRLSCAPSGRIFHYNAMGWYRQAPGKERELVAAIDYGGSSTYYADSVKGRFTISRDNAKNTVYLEMNSLKPEDTAVYYCWGQATQVTVSS”, for which the “polyreactivity (PSR sort gate)” value is recorded as “low polyreactivity”.

With “QVQLQESASGLVQAGGSLRLSCAASGAIFPAYLMGWYRQAPGKERELVAGISYGSITYCADSVKGRFNISRDNAKNTVYLQMNSLKPEDTAVYYCAKDIGVRRRDYEDYEYWGQGTQVTVSS”, the “polyreactivity (PSR sort gate)” value is given as “low polyreactivity”.

With “QVQLVESGGGLVQAGGSLRLSCAASGSTFGYYTMGWYRQAPGKERELVAAISRSGGRTYYADSVKGRFTISRDNAKKAVYLQMNSLKPEVTAVFYCNADGTRYAGDDYWGQGTQVTVSS”, the “polyreactivity (PSR sort gate)” value was “high polyreactivity”. As to “QVQLVESGGGLVQAGGSLRLSCAASGRTYTYYAMGWYRQAPGKERELVAAISDSGGRTYYADSVKGRFTISRDNAKNTVYLQMNSLKPEDTAVYYCAATTYPYYRFDYWGQGTQVTVSS”, the “polyreactivity (PSR sort gate)” value is listed as “high polyreactivity”.

Consider “QVQLVESGGGLLQAGGSLRLSCAASGFIFRTYAMGWYRQAPGKERELVARISWSGGSTYYADSVKGRFTISRDNAKNTVYLQMNSLITEDTAVYYCARLGTLYESIEYDYWGQGTQVTVSS”, for which the “polyreactivity (PSR sort gate)” value was “low polyreactivity”. Consider “QVQLVESGGGLVQAGGSLRLSCAASRRIFWSNAMGWYRQEPGKERELVAAISRRGGRTYYADSVKGRFTISLDNAKNSVYLQMNSLKPEDTAVYYCAADGTADYDYWGQGTQVTVSS”, for which the “polyreactivity (PSR sort gate)” value is “high polyreactivity”. Take “QVQLVESGGGLVQAGGSLRLSCAASGFTFASYAMGWYRQAPGKERELVAAITRRGGSTNYADSVKGRFTISRDNAKNTVFLQMNSLKPEDTAVYYCNALHGVWYPAYDYWGQGTQVTVSS”: the “polyreactivity (PSR sort gate)” value is recorded as “low polyreactivity”. For “QVQLVESGGGLVQAGGSLRLSCAASGRTFARYAMGWYRPAPGKERELVAAISSSGGSTYYADSVKWRFTISRDNAKNTVYLQMNSLKPEDTAVYYCVTYRNWWYDFWGQGTQVTGSS”, the “polyreactivity (PSR sort gate)” value is listed as “high polyreactivity”. In the case of “QLQLVESGGGLVQAGGSLSLSCAASGSIFNSKRMGWYRPAPGKERELVAAITGGGSTNYADSVKGRFTISRDNAKNTVYLQMNSLKPEDTAVYYCAADYPPTFYYWYEEYEYWGQGTQVTVSS”, the “polyreactivity (PSR sort gate)” value is reported as “low polyreactivity”. The value for “QGQLVESGGGLVQAGGSLRLSCAASGRIVSVYAMGWYRQAPGKEREFVASISWRGGRTYYADSVKGRFTISRDNAKNTVYLQMNSLKPEDTALYYCATGYDYYVRRYYYWGQGTQVSVSS” was “high polyreactivity”. For “QVQLVESGGGLVQAGGSLRLSCAASGSTFPRYAMGWYRPAPGKERELVAAISSSGRTYYADSVKGRFTISRDNAKNTVYLQMNSLNPEDTAVYYCNAPVARGEASYYWGQGTQVTVSS”, the “polyreactivity (PSR sort gate)” value is on record as “high polyreactivity”. As for “QVQLVESGGGLVQAGCSLRLSCAASGFIFVFNAMGWYRQAPGKERELVAAINGGDITNYADSVKGRFTISRDNAKNTVYLQMNSMKPEDTAVYYCNADGYYFLISNANTLGYWGQGTQVNVSS”, the “polyreactivity (PSR sort gate)” value is “low polyreactivity”.

With “QVQLVESGGGLVQAGGSLRLSCAASGSIFSRNAMGWYRQAPGKERELVAAISYSSGSTYYADSVKGRFTISRDHAKNTVYLQMNSLTPEDTAVYYCAADTTKLQGVEGDYWGQGTQVTVSS”, the “polyreactivity (PSR sort gate)” value is given as “low polyreactivity”. For the sequence “QVQLVESGGGLVQAGGSLRLSCAASGFIFNKYAMGWYRQAPGKERELVATIRRDGSTNYADSVKGRFTISRDNAKNTVYLQMNSLIPEDTAVYYCAVRPYYWSRDYYWGQGTQVTVSS”, the “polyreactivity (PSR sort gate)” value is reported as “high polyreactivity”. As to “QVQLVESGGGLVQAGGSLRLSCAASGRIFIINAMGWYRQAPGKERELVAAITGTGSTYYADSVKGRFTISRDNAKNTVYLQMNSLKPEDTAVYYCAADVSYTYYGFWYDEYYWGQGTQVTVSS”, the “polyreactivity (PSR sort gate)” value was “high polyreactivity”.

“QVQLVESGGGLVQAGGSLRLSCAASGRTFVVYAMGWYRQAPGKERELVAVISFTGDSTFYADSVKGRFTISRDNGKNTVYLQMNSLKPEDTAVYYCAADFRRVFSKYSYYLYFDFDYWGQGTLVTVSS”: the “polyreactivity (PSR sort gate)” value is “low polyreactivity”. As for “QVQLVESGGGLVQAGGSLRLSCAASGSIFTRNAMGWYRQAPGKEREFVAAISSSGVSTYYADSVKGRFTISRDNAKNTVYLQMNSLKPEDTAVYYCAARWGTKSGRYDYWGQGTQVTVSS”, the “polyreactivity (PSR sort gate)” value is “high polyreactivity”. Take “QVQLVESGGGLVQAGGSLRLSCADSGNIFSWYAMGWYRQAPGKERELVAAITWSGGTTYYADSVKGRFTISRDNAKNTVYLQMNSLKPEDTAVYYCAVFSRYRSGYYSWGQGTQVTVSS”: the “polyreactivity (PSR sort gate)” value is reported as “high polyreactivity”. For “QVQLVESGGGLVQAGGSLRLSCAASGSTSPGYAMGWYRQAPGKERELVAAITWNGGSTYYADSVKGRFTISRDNAKNTVYLQMNSLKPEDTAVYYCNKLSGYGWRSYGYWGQGTQVTVSS”, the “polyreactivity (PSR sort gate)” value is “high polyreactivity”.

As to “QVQLVESWGGLVQAGGSLRLSCAASGYIFDRYAMGWYRQAPGKERELVAAISGRGGSTYYADSVKGRFTISRDNAKNTVYLQMNSLKPEDTAVYYCARDVYVRNGQRARYDSWGQGTQVTVSS”, the “polyreactivity (PSR sort gate)” value is listed as “high polyreactivity”. The value for “QVQLVESGGGLVQAGGSLRLSCAATGSTFIFYAMGWYRQAPGKERELVAAISWSGGSTYYADSVKGRFTISRDNAKNTVYLQMNSLKPEDTAVYYCNARWSSWYIHSHYYYWGQGTQVTVSS” was “high polyreactivity”; that for “QVQLVESGGGLVQAGGSLRLSCAASGFIFWPYAMGWYRQAPGKESELVAAITTGGSTNYADSVKGRFTISRDNAKNTVYLQMNSLKPEDTAVYYCAKGYYFGYYEFDYWGQGTQVTVSS” was “high polyreactivity”.

For the origin of these results see the nanobody polyreactivity screen of Harvey et al. (2022).
